Where “and” joins values, the source holds several entries; their conditions need not be identical. Equal entries are not always repeated.
Assays:
xylose isomerase [1] = assay: In vitro xylose isomerase activity assay (sorbitol dehydrogenase/NADH coupled, A340; Km, specific activity, Ki for xylitol); format: biochemical, Saccharomyces cerevisiae
Description: About 20 μg of soluble whole cell extract was incubated in the presence of 100 mM Tris, pH 7.5, 10 mM MgCl2, 0.15 mM NADH (Sigma, St. Louis, Mo.), and about 2 U sorbitol dehydrogenase (Roche) at about 30° C. […] A Beckman DU-800 was utilized with an Enzyme Mechanism software package (Beckman Coulter, Inc.), and the change in the A340 was monitored for 2-3 minutes.
Approximately 20 μg of soluble whole cell extract from each transformed cell line, prepared using Y-PER plus reagent as described above, was incubated in a solution containing about 100 mM Tris, pH 7.5, 10 mM MgCl ? 2, 0.15 mM NADH (Sigma, St. Louis, Mo.), and 2 U Sorbitol Dehydrogenase (SDH) (Roche, Indianapolis, Ind.) at about 30° C. […] A Beckman DU-800 spectrophotometer was utilized with an Enzyme Mechanism software package (Beckman Coulter, Inc, Brea, Calif.), and the change in the A340 was monitored for 2-3 minutes.
Approximately 20 μg of soluble whole cell extract from each transformed cell line was prepared using Y-PER plus reagent as described above was incubated in a solution containing about 100 mM Tris, pH 7.5, 10 mM MgCl2, 0.15 mM NADH (Sigma, St. Louis, Mo.), and 2 U sorbitol dehydrogenase (SDH) (Roche, Indianapolis, Ind.) at about 30° C. […] A Beckman DU-800 spectrophotometer was utilized with an Enzyme Mechanism software package (Beckman Coulter, Inc, Brea, Calif.), and the change in the A340 was monitored for 2-3 minutes.
Approximately 20 μg of soluble whole cell extract from each transformed cell line was prepared using Y-PER plus reagent as described above was incubated in a solution containing about 100 mM Tris, pH 7.5, 10 mM MgCl ? .2, 0.15 mM NADH (Sigma, St. Louis, Mo.), and 2 U Sorbitol Dehydrogenase (SDH) (Roche, Indianapolis, Ind.) at about 30° C. […] A Beckman DU-800 spectrophotometer was utilized with an Enzyme Mechanism software package (Beckman Coulter, Inc, Brea, Calif.), and the change in the A340 was monitored for 2-3 minutes.
The Clostridiales enzyme was further characterized at 1974 μg to confirm the presence of activity.

C5 strain = assay: In vivo evaluation of xylose isomerase constructs in C5 strain, fermentation on xylose; format: cell-based, Saccharomyces cerevisiae; conditions: final sample at 372 hours
Description: The engineered strain was designed to include the following genetic modifications: the native Pho13 gene (alkaline phosphatase specific for p-nitrophenyl phosphate) was disrupted by inserting a construct containing the native TLK1 gene (Transketolase-1); the native aldose reductase gene (Gre3) was disrupted by inserting a construct containing the native high-affinity glucose transporter-7 gene (HXT7); the native glucose-repressible alcohol dehydrogenase II gene (adh2) was disrupted by inserting a construct containing the native xylulokinase gene (XYLK); and the native orotidine-5′ phosphate decarboxylase gene (ura3) was disrupted by inserting a construct containing the native transaldolase 1 gene (TAL1). The resulting strain had the following genotype: pho13::TKL1, gre3::HXT7, adh2::XYLK, ura3::TAL1.
The C5 strain was transformed using standard protocols with either p426GPD (as a control) or the chimeric variants XI-R, XI-Rp5, XI-Rp10, or XI-Rp15. The transformed cells were grown on SC-glucose minus uracil initially and then passaged onto SC-xylose minus uracil. Cultures of each of the above constructs were made in SC-xylose minus uracil—and grown for one week. The cultures were grown aerobically at 30° C. with 250 rpm agitation, 1 vvm sparge of process air, 21% O2. The pH was controlled at about 5.0 with 1N NaOH. […] At 24 hours elapsed fermentation time the fermentation was switched to anaerobic conditions.
Oxygen was purged with 100% N2 sparge at 1 vvm until percent O2 was below 1%. Aeration was then set at 0.25 vvm 100% N2.
The final sample also measured biomass by dry cell weight.

xylose isomerase [2] = assay: Heterologous xylose isomerase expression in yeast (active yes/no); format: cell-based, Saccharomyces cerevisiae; conditions: xylose isomerase of the donor organism expressed in engineered yeast (S. cerevisiae)

B1: Ruminococcus flavefaciens: native xylose isomerase from Ruminococcus flavefaciens strain 17 (SEQ ID NO: 31) (protein, listed as Ruminococcus flavefaciens)
chain: MEFFSNIGKIQYQGPKSTDPLSFKYYNPEEVINGKTMREHLKFALSWWHTMGGDGTDMFGCGTTDKTWGQSDPAARAKAKVDAAFEIMDKLSIDYYCFHDRDLSPEYGSLKATNDQLDIVTDYIKEKQGDKFKCLWGTAKCFDHPRFMHGAGTSPSADVFAFSAAQIKKALESTVKLGGNGYVFWGGREGYETLLNTNMGLELDNMARLMKMAVEYGRSIGFKGDFYIEPKPKEPTKHQYDFDTATVLGFLRKYGLDKDFKMNIEANHATLAQHTFQHELRVARDNGVFGSIDANQGDVLLGWDTDQFPTNIYDTTMCMYEVIKAGGFTNGGLNFDAKARRGSFTPEDIFYSYIAGMDAFALGFRAALKLIEDGRIDKFVADRYASWNTGIGADIIAGKADFASLEKYALEKGEVTASLSSGRQEMLESIVNNVLFSL
Specific Activity (xylose isomerase [1]; soluble whole cell extract, xylose 40-500 mM, 30° C., pH 7.5): 1.718 µmol/min/mg
Specific Activity (xylose isomerase [1]; total soluble crude extracts from S. cerevisiae, xylose concentrations between 40 and 500 nM (so in the source), Michaelis Mentin plots): 0.9605 µmol/min/mg
Glucose (C5 strain): 0 g/L
Dry Cell Wt (C5 strain; listed as XI-R): 2.20 g/L and 2.03 g/L
Ethanol (C5 strain; listed as XI-R): 15.65 g/L and 15.5 g/L
Xylose (C5 strain; listed as XI-R): 3.14 g/L and 3.85 g/L
Active? (yes/no) (xylose isomerase [2]): Yes

From patent US8114974B2, “Engineered microorganisms with enhanced fermentation activity” (Verdezyne, Inc., priority 2009, dated 2012)
